Earlier results in patent publication US20030175285A1, “Molecule of pharmaceutical interest comprising at its n-terminal a glutamic acid or a glutamine in the form of a physiologically acceptable strong acid” (priority 2000, published 2003).

Settings: in 2 months, formulated with adjuvant solution of the Montanide ISA 720 type

In the case of EEGAIVGEI, the “spontaneous cyclization to pyroglutamate” value is given as 30%.
